Patent US20150056199A1
Like-named read-outs stand apart in the source and are kept apart here.

Assays:
Assay in all cases: cell-based or functional assay
[1] = biological target: human GDF15 (hGDF15), mature, generated in-house in CHO cells (human) (UniProt Q99988)
[2] = biological target: human TGFβ1 (PeproTech) (human) (UniProt P01137)
[3] = biological target: human TGFβ3 (PeproTech) (human) (UniProt P10600)
[4] = biological target: murine GDF15 (mGDF15), mature, generated in-house in CHO cells (mouse) (UniProt Q9Z0J7)
Sequence of murine GDF15 (mGDF15), mature, generated in-house in CHO cells (mouse) (Q9Z0J7 192-303): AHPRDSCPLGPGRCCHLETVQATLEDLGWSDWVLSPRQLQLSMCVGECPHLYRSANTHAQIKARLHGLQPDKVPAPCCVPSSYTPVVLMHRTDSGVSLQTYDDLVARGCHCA

[5] = biological target: human TGFβ1 (PeproTech) (human) (UniProt P01137); remark: listed apart in the source
[6] = biological target: human TGFβ3 (PeproTech) (human) (UniProt P10600); remark: listed apart in the source

Sequence of human TGFβ1 (PeproTech) (human) (P01137 279-390 limits assumed): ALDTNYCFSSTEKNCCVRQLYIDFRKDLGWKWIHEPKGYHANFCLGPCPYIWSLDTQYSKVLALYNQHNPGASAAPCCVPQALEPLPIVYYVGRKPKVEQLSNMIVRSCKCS
Sequence of hTβRIIshort(23-159)-hG2Fc (Fc fusion) (chain): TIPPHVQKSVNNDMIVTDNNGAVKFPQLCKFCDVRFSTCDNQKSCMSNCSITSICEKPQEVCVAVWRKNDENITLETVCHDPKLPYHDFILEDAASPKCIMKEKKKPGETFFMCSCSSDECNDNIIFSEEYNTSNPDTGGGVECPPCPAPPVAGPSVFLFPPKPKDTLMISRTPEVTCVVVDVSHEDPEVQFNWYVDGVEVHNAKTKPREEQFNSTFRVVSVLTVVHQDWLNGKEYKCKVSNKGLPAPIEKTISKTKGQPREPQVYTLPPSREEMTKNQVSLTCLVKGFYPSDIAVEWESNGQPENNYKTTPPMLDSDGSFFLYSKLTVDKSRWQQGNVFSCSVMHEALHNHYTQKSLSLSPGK
Sequence of hTβRIIshort(23-153)-hG2Fc (Fc fusion) (chain): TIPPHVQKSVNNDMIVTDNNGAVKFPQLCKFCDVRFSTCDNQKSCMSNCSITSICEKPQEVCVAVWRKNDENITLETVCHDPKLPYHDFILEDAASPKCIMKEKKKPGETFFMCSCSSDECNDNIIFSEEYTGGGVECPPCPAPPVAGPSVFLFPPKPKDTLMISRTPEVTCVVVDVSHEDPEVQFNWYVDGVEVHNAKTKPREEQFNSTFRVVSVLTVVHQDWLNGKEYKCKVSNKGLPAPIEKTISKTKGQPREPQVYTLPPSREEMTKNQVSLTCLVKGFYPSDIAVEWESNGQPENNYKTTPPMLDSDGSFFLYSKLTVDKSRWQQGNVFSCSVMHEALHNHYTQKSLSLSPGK
Sequence of hTβRIIshort(29-159)-hG2Fc (Fc fusion) (chain): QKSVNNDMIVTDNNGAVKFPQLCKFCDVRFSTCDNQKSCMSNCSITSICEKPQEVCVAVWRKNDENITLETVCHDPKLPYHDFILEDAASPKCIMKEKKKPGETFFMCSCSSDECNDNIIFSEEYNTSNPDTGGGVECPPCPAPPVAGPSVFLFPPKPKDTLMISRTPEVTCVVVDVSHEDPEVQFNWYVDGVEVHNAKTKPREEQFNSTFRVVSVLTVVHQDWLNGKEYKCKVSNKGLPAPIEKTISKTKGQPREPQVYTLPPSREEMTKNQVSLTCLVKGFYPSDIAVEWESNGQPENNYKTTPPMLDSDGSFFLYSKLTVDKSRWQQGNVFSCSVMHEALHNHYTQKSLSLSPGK
Sequence of hTβRIIshort(35-159)-hG2Fc (Fc fusion) (chain): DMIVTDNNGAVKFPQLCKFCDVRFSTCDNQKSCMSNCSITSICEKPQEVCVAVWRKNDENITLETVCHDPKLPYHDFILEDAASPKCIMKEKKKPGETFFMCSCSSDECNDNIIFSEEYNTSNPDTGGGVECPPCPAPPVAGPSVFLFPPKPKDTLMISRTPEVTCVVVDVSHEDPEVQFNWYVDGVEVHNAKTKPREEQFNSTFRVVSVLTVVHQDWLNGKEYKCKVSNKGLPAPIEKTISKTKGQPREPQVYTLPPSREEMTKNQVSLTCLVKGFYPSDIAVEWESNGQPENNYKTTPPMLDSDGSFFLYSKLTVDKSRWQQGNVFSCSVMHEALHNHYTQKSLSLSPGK
Sequence of human GDF15 (hGDF15), mature, generated in-house in CHO cells (human) (Q99988 197-308): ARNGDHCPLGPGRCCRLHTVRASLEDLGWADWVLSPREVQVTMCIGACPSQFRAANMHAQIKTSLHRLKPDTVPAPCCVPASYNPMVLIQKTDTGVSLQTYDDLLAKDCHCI
Sequence of human TGFβ3 (PeproTech) (human) (P10600 301-412 limits assumed): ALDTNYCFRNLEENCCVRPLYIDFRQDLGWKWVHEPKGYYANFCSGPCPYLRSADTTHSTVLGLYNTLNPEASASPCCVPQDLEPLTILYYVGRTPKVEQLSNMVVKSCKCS

Row | IC50 (nM), A549 CAGA-12 reporter gene assay, hGDF15 (70 or 112 ng/ml) [1] [nM] | IC50 (nM), A549 CAGA-12 reporter gene assay, hTGFβ1 (640 pg/ml) [2] [nM] | IC50 (nM), A549 CAGA-12 reporter gene assay, hTGFβ3 (270 pg/ml) [3] [nM] | IC50 (nM), A549 CAGA-12 reporter gene assay, mGDF15 (35 ng/ml) [4] [nM] | IC50 (nM), A549 CAGA-12 reporter gene assay, hTGFβ1 (640 pg/ml) [5] [nM] | IC50 (nM), A549 CAGA-12 reporter gene assay, hGDF15 (70 ng/ml) [1] [nM] | IC50 (nM), A549 CAGA-12 reporter gene assay, hTGFβ3 (270 pg/ml) [6] [nM] | Substance
1 | 0.4 | 2.05 | > 7.5 | – | – | – | – | hTβRIIshort(29-159)-hG2Fc (Fc fusion)
2 | – | – | – | 0.7 | > 73.6 | – | – | hTβRIIshort(23-159/D110K)-hG2Fc (Fc fusion)
3 | 0.92 | 2.51 | > 7.5 | – | – | – | – | hTβRIIshort(35-159)-hG2Fc (Fc fusion)
4 | – | 17.7 | – | – | – | 2.42 | – | hTβRIIshort(23-153/N70D)-hG2Fc (Fc fusion)
5 | – | 2.62 | 0.14 | – | – | 0.18 | – | hTβRIIshort(23-153)-hG2Fc (Fc fusion)
6 | – | 0.52 | 0.37 | 0.12 | 1.73 | 0.14 | 0.14 | hTβRIIshort(23-159)-hG2Fc (Fc fusion)
